Assays:
[1] = system: chloroplasts of the maize protoplast; assay: Maize protoplast transient assay, microscopy of TraP12-YFP; assay type: cell-based, Zea mays var. B104; conditions: maize protoplasts, 12 hours after transfection
Description: The Trap12 chimeric chloroplast transit peptide-encoding polynucleotide sequence (SEQ ID NO:5) and the linker sequence (SEQ ID NO:10) were cloned upstream of the yellow fluorescent protein gene and incorporated into construct for testing via the maize protoplast transient in planta assay. The resulting construct contained the following plant transcription unit (PTU). The first PTU was comprised of the Zea mays Ubiquitin 1 promoter (ZmUbi1 promoter; Christensen, A., Sharrock R., and Quail P., (1992) Maize polyubiquitin genes: structure, thermal perturbation of expression and transcript splicing, and promoter activity following transfer to protoplasts by electroporation, Plant Molecular Biology, 18:675-689), Trap yellow fluorescent protein fusion gene (TraP12-YFP; US Patent App. 2007/0298412), and Zea mays Peroxidase 5 3′ untranslated region (ZmPer5 3′UTR; U.S. Pat. No. 6,384,207). The construct was confirmed via restriction enzyme digestion and sequencing.
Seed of Zea mays var. B104 were surface sterilized by shaking vigorously in 50% Clorox (3% sodium hypochlorite), containing 2-3 drops of Tween 20, for about 20 minutes. […]
Transfection of 100 to 500 μl of protoplasts (1-5×10^5) was completed by adding the protoplasts to a 2 ml microfuge tube containing about 40 μg of plasmid DNA (pDAB106597), at room temperature. […] Fluorescence of YFP was viewed by microscopy after 12 hours of incubation. […]

[2] = system: chloroplasts of the tobacco leaf tissue; assay: Tobacco transient assay, confocal microscopy of TraP-YFP; assay type: cell-based, Nicotiana benthamiana; conditions: Agrobacterium-infiltrated tobacco leaves
Description: The Trap12 and TraP13 chimeric chloroplast transit peptide sequences were initially tested via a transient in planta assay. Polynucleotide sequences which encode the Trap12 (SEQ ID NO:5) and TraP13 (SEQ ID NO:7) chimeric chloroplast transit peptide sequences were synthesized. A linker sequence (SEQ ID NO:10) was incorporated between the TraP sequence and the yfp coding sequence. The resulting constructs contained two plant transcription units (PTU). The first PTU was comprised of the Arabidopsis thaliana Ubiquitin 10 promoter (AtUbi10 promoter; Callis, et al., (1990) J. Biol. Chem., 265: 12486-12493), Trap yellow fluorescent protein fusion gene (TraP-YFP; US Patent App. 2007/0298412), and Agrobacterium tumefaciens ORF 23 3′ untranslated region (AtuORF23 3′UTR; U.S. Pat. No. 5,428,147). […]
Agrobacterium-infiltrated tobacco leaves were severed from the plant, and placed into a petri-dish with water to prevent dehydration. The infiltrated tobacco leaves were observed under blue light excitation with long-pass filter glasses held in place using a Dark Reader Hand Lamp™ (Clare Chemical Research Co.; Dolores, Colo.) to identify undamaged areas of the leaf that were successfully expressing the YFP reporter proteins. […]

[3] = system: Cry1Ac, Cry1Ca, Cry1F proteins; assay: Protein expression of stacked TraP12 cry1Ac, cry1Ca, cry1F in Arabidopsis (Western blotting, ELISA); design: species or system Arabidopsis thaliana
Description: The TraP12 chimeric transit peptide was fused to the 5′ end of cry1Ac, cry1Ca, and cry1F gene sequences which were stacked in multi PTU plasmid constructs to determine whether the TraP12 chimeric transit peptide enhanced or reduced expression of the proteins within Arabidopsis.
The constructs listed in Table 35 were assembled using art recognized methods. The constructs were subsequently transformed into Arabidopsis thaliana using the Agrobacterium mediated transformation protocol previously described. Transgenic Arabidopsis plants were obtained and protein expression was determined via Western blotting and ELISA assays.

B1: TraP12: chimeric chloroplast transit peptide SEQ ID NO:6, N-terminus from Brassica napus, C-terminus from Arabidopsis thaliana EPSPS (protein)
chain: MAQSSRICHGVQNPCVIISNLSKSNQNKSPFSVSLKTHQHPRAYPISSSWGLKKSGMTLIGSELRPLKVMSSVS
modifications: TraP12 chloroplast transit peptide
- localization of YFP fluorescent protein (microscopy imaging) [1]: accumulated within the chloroplasts
- localization of YFP fluorescence signal (microscopy imaging) [2]: accumulated within the chloroplasts
- translocation of expressed proteins (Western blots) [3]: directed the expressed proteins into the chloroplasts

From US9540654B2, “Synthetic brassica-derived chloroplast transit peptides” (Dow AgroSciences LLC, priority 2012, dated 2017)
